How the values were obtained:
HsRPA1 DBD-AB = HsRPA1 DBD-AB (Homo sapiens, UniProt P27694 181-427); test: MST; 20 mM Tris pH 7.5, 10 mM NaCl, 10 mM MgCl2, 2 mM DTT, 10% glycerol, 0.1 mg/ml BSA, 15 min, room temperature; EMSA 2 nM probe (gel at 4 C), MST 10 nM probe; conditions: protein: recombinant; tags: 6xHis (pET28a); label: 5' Cy5 (MST) or 5' IRDye800 (EMSA); single strand
TbRPA1 DBD-AB S105T = TbRPA1 DBD-AB S105T (Trypanosoma brucei, UniProt Q384B5 1-257, S105T); test: as above; conditions: protein: recombinant; tags: N-term 6xHis; label: 5' Cy5 (MST) or 5' IRDye800 (EMSA); single strand
TbRPA1 DBD-AB = biological target: T1, TbRPA1 DBD-AB (Trypanosoma brucei, UniProt Q384B5 1-257); test: as above; conditions: protein: recombinant; tags: N-term 6xHis (pET28a); label: 5' Cy5 (MST) or 5' IRDye800 (EMSA); single strand
T1 sequence: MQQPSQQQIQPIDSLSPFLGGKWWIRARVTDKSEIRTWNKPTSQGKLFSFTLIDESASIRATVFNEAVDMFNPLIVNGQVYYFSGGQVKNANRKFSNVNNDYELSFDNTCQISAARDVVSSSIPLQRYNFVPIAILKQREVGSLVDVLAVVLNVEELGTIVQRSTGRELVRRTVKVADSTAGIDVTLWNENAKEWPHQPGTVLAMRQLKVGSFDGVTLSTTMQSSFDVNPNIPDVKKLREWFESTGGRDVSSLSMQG

TcRPA1 DBD-AB T105S = TcRPA1 DBD-AB T105S (Trypanosoma cruzi, UniProt Q4DXC9 2-257, T105S); test: as above; conditions: protein: recombinant; tags: N-term 6xHis; label: 5' Cy5 (MST) or 5' IRDye800 (EMSA); single strand
TbRPA1 DBD-AB W188A = TbRPA1 DBD-AB W188A (Trypanosoma brucei, UniProt Q384B5 1-257, W188A); test: EMSA, MST; 20 mM Tris pH 7.5, 10 mM NaCl, 10 mM MgCl2, 2 mM DTT, 10% glycerol, 0.1 mg/ml BSA, 15 min, room temperature; EMSA 2 nM probe (gel at 4 C), MST 10 nM probe; conditions: protein: recombinant; tags: N-term 6xHis; label: 5' Cy5 (MST) or 5' IRDye800 (EMSA); single strand
TbRPA1 DBD-AB F64A = TbRPA1 DBD-AB F64A (Trypanosoma brucei, UniProt Q384B5 1-257, F64A); test: as above; conditions: protein: recombinant; tags: N-term 6xHis; label: 5' Cy5 (MST) or 5' IRDye800 (EMSA); single strand

HsRPA1 DBD-AB, sequence (P27694 181-427): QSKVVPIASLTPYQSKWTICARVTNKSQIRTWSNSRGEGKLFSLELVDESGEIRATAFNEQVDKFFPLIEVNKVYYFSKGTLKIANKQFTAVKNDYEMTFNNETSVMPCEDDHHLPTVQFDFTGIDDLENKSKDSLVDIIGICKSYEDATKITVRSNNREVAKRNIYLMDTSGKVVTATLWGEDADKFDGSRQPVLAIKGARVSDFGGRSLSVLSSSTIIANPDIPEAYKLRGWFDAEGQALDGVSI

Binder	Kd (HsRPA1 DBD-AB) [nM]	Kd (TbRPA1 DBD-AB S105T) [nM]	Kd (TbRPA1 DBD-AB) [nM]	Kd (TcRPA1 DBD-AB T105S) [nM]	binding result (TbRPA1 DBD-AB W188A)	binding result (TbRPA1 DBD-AB F64A)
TTTTTTTTTTTTTTTTTTTTTTTTTTTTTTTT (ssDNA) [dT32]	48 ± 37.4	21.9 ± 2.7	24.6 ± 12.4	52.4 ± 27.9	no binding	no binding
TTTTTTTTTTTTTTTTTTTT (ssDNA) [dT20]			30.5			
